Source: patent US9074002B2, “PTP1B inhibitors” (Cold Spring Harbor Laboratory, priority 2009, dated 2015)

T1: PTP1B-OX (Homo sapiens, UniProt P18031)
T1 construct: made in house; host or cells: E. coli BL21 (pET19b)
T1 sequence (P18031 3-277): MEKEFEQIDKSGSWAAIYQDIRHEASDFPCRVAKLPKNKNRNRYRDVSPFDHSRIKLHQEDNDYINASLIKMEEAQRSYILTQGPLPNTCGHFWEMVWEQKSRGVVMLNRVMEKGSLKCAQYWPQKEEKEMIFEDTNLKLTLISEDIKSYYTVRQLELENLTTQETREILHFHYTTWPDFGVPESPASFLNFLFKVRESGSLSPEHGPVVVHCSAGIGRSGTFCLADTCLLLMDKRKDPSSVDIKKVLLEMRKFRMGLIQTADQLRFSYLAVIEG

T2: PTP1B under reducing condition (Homo sapiens, UniProt P18031)
T2 construct: made in house; host or cells: E. coli BL21 (pET19b)
T2 sequence (P18031 3-277 limits assumed): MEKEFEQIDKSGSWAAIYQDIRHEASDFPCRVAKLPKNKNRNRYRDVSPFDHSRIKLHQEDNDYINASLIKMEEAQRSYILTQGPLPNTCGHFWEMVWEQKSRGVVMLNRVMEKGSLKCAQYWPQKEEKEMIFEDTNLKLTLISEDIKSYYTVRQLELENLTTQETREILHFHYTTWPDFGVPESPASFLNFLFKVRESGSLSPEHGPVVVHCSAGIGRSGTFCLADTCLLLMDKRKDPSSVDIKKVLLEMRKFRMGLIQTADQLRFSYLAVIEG

T3: endogenous PTP1B-OX (Homo sapiens, UniProt P18031)
T3 construct: endogenous in cells; host or cells: 293T cells (transfected only with the scFv intrabody)
T3 sequence (P18031 1-435): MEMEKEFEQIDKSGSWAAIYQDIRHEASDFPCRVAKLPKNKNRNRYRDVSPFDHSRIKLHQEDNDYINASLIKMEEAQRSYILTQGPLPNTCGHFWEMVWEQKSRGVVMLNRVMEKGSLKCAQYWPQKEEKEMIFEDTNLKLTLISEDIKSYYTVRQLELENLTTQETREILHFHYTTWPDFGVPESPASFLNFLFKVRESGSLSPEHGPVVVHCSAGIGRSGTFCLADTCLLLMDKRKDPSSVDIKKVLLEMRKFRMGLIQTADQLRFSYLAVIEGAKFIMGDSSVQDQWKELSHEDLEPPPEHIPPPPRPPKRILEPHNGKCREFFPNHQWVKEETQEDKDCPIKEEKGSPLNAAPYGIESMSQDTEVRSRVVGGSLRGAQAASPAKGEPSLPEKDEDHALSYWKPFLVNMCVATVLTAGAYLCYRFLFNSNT


Key:
PTP1B-OX = molecular target: T1, PTP1B-OX; assay: In vitro binding assay, purified recombinant PTP1B (37 kDa) and purified scFv, Ni-NTA pull down; conditions: purified proteins, scFv in molar excess, 2 hours at 4° C.; FIG. 9
Experimental: (§1) They established conditions in which PTP1B is reversibly oxidized by H2O2 in solution (FIG. 8). An artificial protein substrate RCML, in which tyrosine was phosphorylated with ^32P using recombinant GST-FER kinase was used in this assay to measure the phosphatase activity. Recombinant PTP (37 kDa) was incubated with increasing concentration (50 μM to 100 mM) of H2O2. A quick buffer exchange was done to remove the H2O2 and reducing agent (TCEP) was added to reactivate the enzyme.
(§2) In the in vitro binding assay, purified PTP was reversibly oxidized with […] followed by a quick buffer exchange to remove H2O2 (FIG. 8). Purified scFv was incubated in molar excess with PTP1B-OX or with PTP under reducing condition (with 2 mM TCEP) in binding buffer (20 mM HEPES, pH 7.4, 300 mM NaCl, 0.05% BSA, 0.05% Tween-20 and 10 mM imidazole) for 2 hours at 4° C. Ni-NTA agarose was added and incubated for one hour at 4° C. Protein complex bound to Ni-NTA agarose beads was pulled down and washed (three times, 5 minutes each, at 4° C.) with binding buffer containing 20 mM imidazole to reduce non-specific binding to the beads. The protein complex was eluted from the Ni-NTA agarose beads with 500 mM imidazole (in binding buffer, pH 7.4) for 15 minutes at 4° C. with gentle shaking. The complex was separated by SDS-PAGE and PTP1B was detected with anti-PTP1B antibody (FG6) and scFv was detected with anti-HA antibody [anti-HA (3F10)-HRP, Roche] by immunoblotting. Eight different scFvs (scFvs 20, 21, 24, 28, 45, 48, 57, and 105), expressed and purified from bacterial cultures were tested by this in vitro binding experiment.

[1] = molecular target: T2, PTP1B under reducing condition; assay: In vitro binding assay, purified recombinant PTP1B (37 kDa) and purified scFv, Ni-NTA pull down, reducing condition; conditions: with 2 mM TCEP; FIG. 9
Experimental: as §1, §2

endogenous PTP1B-OX = molecular target: T3, endogenous PTP1B-OX; assay: Intrabody interaction in 293T cells treated with H2O2 (Ni-NTA pull down / anti-PTP1B immunoprecipitation); assay type: cell-based; conditions: 1 mM H2O2 5 minutes, FIGS. 11, 12
Experimental: One of the positive candidate scFvs (scFv45) was cloned in pcDNA3.2/V5-GW/D-TOPO expression vector and transiently expressed in mammalian cells as stable intracellular antibody (aka intrabody) (FIG. 10). To detect PTP1B-OX and scFv45 interaction in mammalian cells, scFv45 was overexpressed in 293T cells as described herein (See Example 4) and 48 hours post transfection the cells were serum-starved for 16 hours in growth medium (DMEM, low glucose) without serum (FBS), then incubated with 1 mM H2O2 (in growth medium without serum) for 5 minutes at 37° C. or treated with 20 mM NAC (in growth medium without serum) for 1 hour at 37° C. Cells treated with H2O2 were washed twice with cold (4° C.) PBS and lysed in lysis buffer (25 mM HEPES, pH 7.4, 150 mM NaCl, 0.25% Deoxychloate, 1% TritonX-100, 25 mM NaF, 10 mM MgCl2, 1 mM EDTA, 10% Glycerol, 0.5 mM PMSF, 10 mM Benzamidine, protease inhibitor cocktail). Cells treated with NAC were lysed with lysis buffer containing 2 mM TCEP to ensure a post-lysis reducing environment. Interaction between PTP1B and intrabody45 were tested by pulling down the protein complex from 1 mg of total cell lysate with Ni-NTA agarose or by immunoprecipitating PTP with anti-PTP1B (FG6). For the pull down experiment, Ni-NTA agarose beads were incubated with the lysates (both oxidized and reduced) at 4° C. Protein complex bound to the Ni-NTA agarose beads was pulled down and washed three times; first with lysis buffer containing 20 mM imidazole followed by two more washes with wash buffer (PBS, pH 7.4, 20 mM imidazole, 0.05% BSA, 0.05% Tween-20 and protease inhibitors). Applicant used 20 mM imidazole in the wash buffer to reduce the non-specific binding of proteins with the Ni-NTA agarose beads. The complex was eluted with wash buffer containing 500 mM imidazole with gentle shaking at 4° C. and the eluate was mixed with SDS sample buffer with DTT. For the immunoprecipitation experiments, 1 mg of total cell lystates (both oxidized and reduced) was incubated with anti-PTP1B antibody (FG6) at 4° C. The interacting protein complex was immunoprecipitated after incubating the lysate-antibody mixture with protein A/G Sepharose at 4° C. After immunoprecipitation, Sepharose beads were washed three times; first with lysis buffer followed by two more washes with wash buffer (PBS, pH 7.4, 0.05% BSA, 0.05% Tween-20 and protease inhibitors). The Sepharose beads were then heated at 90° C. in 2×SDS sample buffer with DTT. Proteins from the pulled down or immunoprecipitated complex were separated by SDS-PAGE. PTP was detected with anti-PTP1B antibody (FG6) and the intrabodies were detected with anti-HA (3F10)-HRP antibody [anti-HA (3F10)-HRP, Roche] by immunoblotting.
In the initial in vitro phosphatase screening assay using reversibly oxidized (with H2O2) recombinant PTP1B, Applicant found four different PTP1B-OX specific scFvs (scFv45, scFv57, scFv64 and scFv106) from the initial pool of 12 different scFvs. […] Applicant has also shown that scFv45, expressed as an intrabody in mammalian cells, can bind to endogenous PTP1B-OX but not endogenous PTP under reducing conditions. Further assessment was carried out to identify additional PTP1B-OX-specific intrabodies. Additional scFvs have been subcloned in pcDNA3.2/V5-GW/D-TOPO mammalian expression vector (FIG. 10) from their respective phagemid constructs. After transient overexpression of these scFvs as intrabodies in 293T cells, the interaction between endogenous PTP1B and these intrabodies in both H2O2-treated cells and cells was observed under reducing condition (treated with NAC and lysed with lysis buffer containing TCEP). […] All can be used in the methods and compositions described herein. Additional scFvs, such as some or all of the 137 selected individual scFvs from the library, can be similarly tested by in vitro screening and/or by binding assay in mammalian cells.

Row | Molecule | binding to PTP1B-OX in vitro (PTP1B-OX) | binding to PTP1B under reducing condition in vitro [1] | binding of intrabody to endogenous PTP1B-OX (endogenous PTP1B-OX)
1 | scFv28: scFv, truncated sequence, SEQ ID NO: 61 (protein) scFv: MKKTAIAIAVALAGFATVAQAAVIYSNDERPSDIPSRFSGSTSGSTSTLTITGVQADDEAVYFCGSADSSTYAGIFGAGTTLTVLGQSSRSSAVTLDESGGGLQTPGGALSLVCKASGFTFSSFNMFWVRQAPGRGLEFVAGITSSGGSTYYGTAVKGRATISRDNGQSTVRMQLNNLRAEDTGTYFCARGAYDYYFYWNYAGTIDAWGHGTEVIVSSTSGQAGQHHHHHHGAYPYDVPDYAS | no significant binding | no significant binding | 
2 | scFv105: scFv, SEQ ID NO: 132 (protein) scFv: MKKTAIAIAVALAGFATVAQAALTQPSSVSANPGEAVKITCSGSSGSYGWYQQKSPGSAPVTVIYYNDKRPSDIPSRFSGSTSGSTSTLTITGVQAEDEAVYFCGGYDSNYLGIFGAGTTLTVLGQSSRSSAVTLDESGGGLQTPRGALSLVCKASGFTFSSYSMAWVRQAPGKGLEFVAGIQNDGSITDYGSAVDGRATISRDDGQSTVRLQLNNLRTEDTATYYCAKTTVADGVIGAYGIDAWGHGTEVIVSSTSGQAGQHHHHHHGAYPYDVPDYAS | no significant binding | no significant binding | 
3 | scFv21: scFv, SEQ ID NO: 54 (protein) scFv: MKKTAIAIAVALAGFATVAQAALTQPSSVSANPGGTVKITCSGSSGSYYGWYQQKSPGSAPVTVIYDNDKRPSDVPSRFSGSKSGPTATLTITGVQAEDEAVYFCGSRDNSYVGIFGAGTTLTVLGQSSRSSAVTLDESGGGLQTPGGALSLVCKASGFTFSSYDMFWVRQAPGKGLEFVAQINSAGSYTNYGSAVKGRATISRDDGQSTVRLQLNNLRAEDTGIYFCAKSASGYYYSGSDAGDIDAWGHGTEVIVSSTSGQAGQHHHHHHGAYPYDVPDYAS | no significant binding | no significant binding | 
4 | scFv61: scFv, SEQ ID NO: 94 and 164 (protein) scFv: MKKTAIAIAVALAGFATVAQAALTQPSSVSANPGETVKITCSGGGSYAGSYYYGWYQQKAPGSAPVTLIYDNTNRPSNIPSRFSGSLSGSTGTLTITGVRAEDEAVYYCGSFDSSTDGGYAAIFGAGTTLTVLGQSSRSSAVTLDESGGGLQTPGGGLSLVCKASEFTFSSYAMEWVRQAPGKGLEWVAYINSDGSSTWYAPAVKGRATISRDNGQSTVRLQLNSLRAEDTATYYCTRGSGGENIDTWGHGTEVIVSSTSGQAGQHHHHHHGAYPYDVPDYAS |  |  | bound weakly to PTP1B-OX
5 | scFv24: scFv, SEQ ID NO: 57 (protein) scFv: MKKTAIAIAVALAGFATVAQAAVSASPGDTVKITCSGGNSSYGYGWYQQKSPGSAPVSVIYYNDERPSDIPSRFSGSASGSTATLTITGVQADDEAVYYCGNADSSTYAGIFGAGTTLTVLGQSSRSSAVTLDESGGGLQTPGGGLSLVCKASGFDFSTNAMGWVRQAPGKGLEWVAGISGSGSSTWYATAVKGRATISRDNGQSTVRLQLNNLRAEDTGTYYCTKYVGDYYWYIDAGSIDAWGHGTEVIVSSTSGQAGQHHHHHHGAYPYDVPDYAS | no significant binding | no significant binding | 
6 | scFv62: scFv, SEQ ID NO: 95 and 165 (protein) scFv: MKKTAIAIAVALAGFATVAQAALTQPSSVSANPGGTVKITCSGSSSAYGYGWYQQKSPGSAPVTVIYNNNKRPSNIPSRFSGSKSGSTGTLTITGVQAEDEAVYFCGSEDSSTDAIFGAGTTLTVLGQSSRSSAVTLDESGGGLQTPGGALSLVCKASGFTFSSYDMGWVRQAPGKGLEYVAGITNDGRYASYGSAVDGRATISRDNGQSTVRLQLNNLRAEDTGTYYCARDDGSGWTGNTIDTWGHGTEVIVSSTSGQAGQHHHHHHGAYPYDVPDYAS |  |  | bound weakly to PTP1B-OX
7 | scFv118: scFv, SEQ ID NO: 142 and 166 (protein) scFv: MKKTAIAIAVALAGFATVAQAALTQPSSVSANLGGTVEITCSGGSGSYGWYQQKSPGGAPVTVIYYNDKRPSDIPSRFSGSKSGSTATLTITGVQVEDEAVYYCGSYDSSYVGIFGVGTTLTVLGQSSRSSAVTLDESGGGLQTPRGALSLVCKASGFTFSSYSMAWVRQAPGKGLEFVAGIQNDGSITDYGSAVDGRATISRDDGQSTVRLQLNNLRTEDTATYYCAKTTVADGVIGAYGIDAWGHGTEVIVSSTSGQAGQHHHHHHGAYPYDVPDYAS |  |  | bound weakly to PTP1B-OX
